Molecular target: His6-HPr (B. subtilis) (UniProt P08877)
Assay: pull-down

UniProt P08877, sequence (P08877 whole entry): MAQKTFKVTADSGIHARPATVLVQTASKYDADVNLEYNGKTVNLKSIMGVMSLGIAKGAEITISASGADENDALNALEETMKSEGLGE

**Q.** Which stoichiometry N does the source give for “GST-HBD (from UniProt O31522 403-515) (domain or fragment)” here?
**A.** 1

Reference: paper PMC2788870
